This note sets out measurements from paper PMC9393700.

Holding throughout (assay): SEC; Superdex S200 16/600 column; purified F proteins (Figure 2A)
In general terms: In gel filtration, larger molecules generally elute earlier.

For test [1], the target named is RSV A2 F DsCav1 (trimer) (respiratory syncytial virus A2).
Test [2] deals with RSV head hMPV stem construct 1 (RHMS-1) (respiratory syncytial virus (RSV-A in Figure 1B) | human metapneumovirus (hMPV-A1 in Figure 1B)) (UniProt P03420).
Test [3] addresses trypsin-treated hMPV B2 F (human metapneumovirus B2).

For orientation: stoichiometry N means a count of units in the complex or per binding partner. In test [1], “RSV A2 F DsCav1 (trimer) (natural protein)” displayed a stoichiometry N of 3.

“RSV head hMPV stem construct 1 (RHMS-1) (from UniProt P03420 1-25; P03420 55-314)” displayed a stoichiometry N in test [2] of 3. In test [3], “trypsin-treated hMPV B2 F (natural protein)” had a stoichiometry N of 3.
